Measured values taken from paper doi:10.1101/2025.11.13.687974.
Each block holds one molecule with its values, some of them ahead of it.

Tests used:
[1] = target: MBP-tagged chromoshadow domain (CSD) of wild-type HPL-2 (Caenorhabditis elegans); test: mass photometry
[2] = target: human HP1β chromoshadow domain (CSD) (human); test: mass photometry
[3] = target: biotinylated 12-mer H3K9me3 chromatin arrays (histone octamers with H3K9me3 on 12x200-601 DNA) (Xenopus laevis | not stated); test: pull-down

- percent dimers [1]: 67%
- percent monomers [1]: 32%
- stoichiometry N [1]: 2
Molecule: MBP-tagged chromoshadow domain (CSD) of wild-type HPL-2 (domain or fragment)

- percent dimers [2]: 97%
- stoichiometry N [2]: 2
Molecule: human HP1β chromoshadow domain (CSD) (domain or fragment)

- fold enrichment on H3K9me3 arrays relative to unmodified arrays [3]: 3 fold
B1: C. elegans HPL-2, wild-type recombinant protein (natural protein)
chain: MSSKSTKRAKIEDPKDNVFMVEKVLDKRTGKAGRDEFLIQWQGFPESDSSWEPRENLQCVEMLDEFEREFSKREKPIRKRHSQKPEPSEDQADPEEDKDEKKETNQNDKFSLEGKQLKCIVGLTKGPGELHFLCKFSDDTARLLPAKEVNSRYPSQVIRYYESKLTIQDPKADEL
